# Residue numbers refer to the chain shown, from its start.
# T1: APBA1_2, Q02410
# T1 sequence (Q02410 742-832, limits assumed, looked up): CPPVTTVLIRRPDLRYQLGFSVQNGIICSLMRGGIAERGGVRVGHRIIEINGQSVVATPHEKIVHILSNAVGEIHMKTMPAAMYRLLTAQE
# T2: DLG3_1, Q92796
# T2 sequence (Q92796 125-227, limits assumed, looked up): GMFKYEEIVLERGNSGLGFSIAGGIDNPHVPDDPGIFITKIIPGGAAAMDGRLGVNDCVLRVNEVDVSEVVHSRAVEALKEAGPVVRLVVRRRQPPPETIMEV
# T3: GRIP1_5, Q9Y3R0
# T3 sequence (Q9Y3R0 568-668, limits assumed, looked up): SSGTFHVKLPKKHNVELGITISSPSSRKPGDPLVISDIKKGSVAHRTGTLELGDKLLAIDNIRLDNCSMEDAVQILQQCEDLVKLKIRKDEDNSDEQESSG
# T4: LIN7A, O14910
# T4 sequence (O14910 103-200, limits assumed, looked up): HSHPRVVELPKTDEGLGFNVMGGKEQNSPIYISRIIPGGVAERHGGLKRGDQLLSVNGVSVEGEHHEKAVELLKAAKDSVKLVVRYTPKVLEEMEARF
# T5: LIN7C, Q9NUP9
# T5 sequence (Q9NUP9 88-185, limits assumed, looked up): T4 sequence (O14910 103-200, limits assumed, looked up) with D13E, V20I, V40I, E42D, K77Q, D78G, S79K, A96S
# T6: PARD3B_1, Q8TEW8
# T6 sequence (Q8TEW8 196-299, limits assumed, looked up): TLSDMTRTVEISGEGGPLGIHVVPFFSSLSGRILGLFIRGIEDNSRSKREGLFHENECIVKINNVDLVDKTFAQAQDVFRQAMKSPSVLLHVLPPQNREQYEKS
# T7: RADIL, Q96JH8
# T7 sequence (Q96JH8 971-1071, limits assumed, looked up): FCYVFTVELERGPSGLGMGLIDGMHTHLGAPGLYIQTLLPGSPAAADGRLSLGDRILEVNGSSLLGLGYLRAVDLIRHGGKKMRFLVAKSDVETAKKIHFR
# T8: SHANK1, Q9Y566
# T8 sequence (Q9Y566 658-767, limits assumed, looked up): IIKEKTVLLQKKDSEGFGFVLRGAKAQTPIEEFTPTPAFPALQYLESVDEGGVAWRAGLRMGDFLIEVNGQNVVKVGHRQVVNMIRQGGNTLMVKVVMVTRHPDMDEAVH
# T9: SYNJ2BP, P57105
# T9 sequence (P57105 8-110, limits assumed, looked up): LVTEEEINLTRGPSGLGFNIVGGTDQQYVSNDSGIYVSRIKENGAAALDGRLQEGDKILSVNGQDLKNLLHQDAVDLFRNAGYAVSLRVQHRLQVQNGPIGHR
# T10: TJP3_3, O95049
# T10 sequence (O95049 375-456, limits assumed, looked up): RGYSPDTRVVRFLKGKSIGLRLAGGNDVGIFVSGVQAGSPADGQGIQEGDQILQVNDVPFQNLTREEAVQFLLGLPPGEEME
# Biological target: AHNAK1, Q09666
# Sequence (Q09666 4-100): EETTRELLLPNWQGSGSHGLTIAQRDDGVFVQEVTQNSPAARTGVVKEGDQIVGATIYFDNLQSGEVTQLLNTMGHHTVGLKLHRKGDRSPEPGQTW
# Assay: holdup assay
# Parameters: key: below the threshold = too weak to quantify, mostly under pKd 3.1 to 4
# Conditions: plain residues with an end cap or a label only (N-terminal biotin on a linker: ado-ado)
row,pKd,Binder
1,below the threshold,"SRSVVESDEL [MYPN, Q86TC9]"
2,below the threshold,"PSVGSKKTVL [REELD1, A0A1B0GV85]"

# Biological target: T1, APBA1_2, Q02410
# Assay: holdup assay
# Parameters: key: below the threshold = too weak to quantify, mostly under pKd 3.1 to 4
# Conditions: plain residues with an end cap or a label only (N-terminal biotin on a linker: ado-ado)
row,pKd,Binder
1,below the threshold,"SRSVVESDEL [MYPN, Q86TC9]"
2,3.56,"PSVGSKKTVL [REELD1, A0A1B0GV85]"

# Biological target: DLG1_1, Q12959
# Assay: holdup assay
# Parameters: key: below the threshold = too weak to quantify, mostly under pKd 3.1 to 4
# Conditions: plain residues with an end cap or a label only (N-terminal biotin on a linker: ado-ado)
row,pKd,Binder
1,below the threshold,"SRSVVESDEL [MYPN, Q86TC9]"
2,below the threshold,"PSVGSKKTVL [REELD1, A0A1B0GV85]"

# Biological target: DLG2_2, Q15700
# Sequence (Q15700 189-283): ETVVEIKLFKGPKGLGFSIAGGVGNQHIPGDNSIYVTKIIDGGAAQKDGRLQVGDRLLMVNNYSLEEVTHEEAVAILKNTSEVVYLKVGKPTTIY
# Assay: holdup assay
# Parameters: key: below the threshold = too weak to quantify, mostly under pKd 3.1 to 4
# Conditions: plain residues with an end cap or a label only (N-terminal biotin on a linker: ado-ado)
row,pKd,Binder
1,below the threshold,"SRSVVESDEL [MYPN, Q86TC9]"
2,below the threshold,"PSVGSKKTVL [REELD1, A0A1B0GV85]"

# Biological target: T2, DLG3_1, Q92796
# Assay: holdup assay
# Parameters: key: below the threshold = too weak to quantify, mostly under pKd 3.1 to 4
# Conditions: plain residues with an end cap or a label only (N-terminal biotin on a linker: ado-ado)
row,pKd,Binder
1,below the threshold,"SRSVVESDEL [MYPN, Q86TC9]"
2,below the threshold,"PSVGSKKTVL [REELD1, A0A1B0GV85]"

# Biological target: DLG4_2, P78352
# Sequence (P78352 155-259): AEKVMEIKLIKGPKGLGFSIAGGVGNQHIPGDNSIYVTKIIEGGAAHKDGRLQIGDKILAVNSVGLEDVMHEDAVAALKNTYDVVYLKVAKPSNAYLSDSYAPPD
# Assay: holdup assay
# Parameters: key: below the threshold = too weak to quantify, mostly under pKd 3.1 to 4
# Conditions: plain residues with an end cap or a label only (N-terminal biotin on a linker: ado-ado)
row,pKd,Binder
1,below the threshold,"SRSVVESDEL [MYPN, Q86TC9]"
2,below the threshold,"PSVGSKKTVL [REELD1, A0A1B0GV85]"

# Biological target: GORASP1, Q9BQQ3
# Sequence (Q9BQQ3 1-208): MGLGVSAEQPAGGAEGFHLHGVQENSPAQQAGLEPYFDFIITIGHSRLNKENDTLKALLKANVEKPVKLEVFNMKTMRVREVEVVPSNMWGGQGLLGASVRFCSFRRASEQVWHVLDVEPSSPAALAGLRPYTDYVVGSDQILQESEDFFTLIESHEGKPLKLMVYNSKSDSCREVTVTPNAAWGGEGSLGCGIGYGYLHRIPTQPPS
# Assay: holdup assay
# Parameters: key: below the threshold = too weak to quantify, mostly under pKd 3.1 to 4
# Conditions: plain residues with an end cap or a label only (N-terminal biotin on a linker: ado-ado)
row,pKd,Binder
1,below the threshold,"SRSVVESDEL [MYPN, Q86TC9]"
2,below the threshold,"PSVGSKKTVL [REELD1, A0A1B0GV85]"

# Biological target: T3, GRIP1_5, Q9Y3R0
# Assay: holdup assay
# Parameters: key: below the threshold = too weak to quantify, mostly under pKd 3.1 to 4
# Conditions: plain residues with an end cap or a label only (N-terminal biotin on a linker: ado-ado)
row,pKd,Binder
1,below the threshold,"SRSVVESDEL [MYPN, Q86TC9]"
2,below the threshold,"PSVGSKKTVL [REELD1, A0A1B0GV85]"

# Biological target: GRIP2_3, Q9C0E4
# Sequence (Q9C0E4 238-339): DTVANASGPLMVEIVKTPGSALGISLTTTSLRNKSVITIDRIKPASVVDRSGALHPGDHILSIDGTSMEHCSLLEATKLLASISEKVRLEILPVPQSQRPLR
# Assay: holdup assay
# Parameters: key: below the threshold = too weak to quantify, mostly under pKd 3.1 to 4
# Conditions: plain residues with an end cap or a label only (N-terminal biotin on a linker: ado-ado)
row,pKd,Binder
1,below the threshold,"SRSVVESDEL [MYPN, Q86TC9]"
2,below the threshold,"PSVGSKKTVL [REELD1, A0A1B0GV85]"

# Biological target: HTRA2, O43464
# Sequence (O43464 355-458): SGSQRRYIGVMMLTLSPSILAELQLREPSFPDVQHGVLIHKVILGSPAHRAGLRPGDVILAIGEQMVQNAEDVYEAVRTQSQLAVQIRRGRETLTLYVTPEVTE
# Assay: holdup assay
# Parameters: key: below the threshold = too weak to quantify, mostly under pKd 3.1 to 4
# Conditions: plain residues with an end cap or a label only (N-terminal biotin on a linker: ado-ado)
row,pKd,Binder
1,below the threshold,"SRSVVESDEL [MYPN, Q86TC9]"
2,below the threshold,"PSVGSKKTVL [REELD1, A0A1B0GV85]"

# Biological target: Inadl_1, Q8NI35
# Sequence (Q8NI35 113-229): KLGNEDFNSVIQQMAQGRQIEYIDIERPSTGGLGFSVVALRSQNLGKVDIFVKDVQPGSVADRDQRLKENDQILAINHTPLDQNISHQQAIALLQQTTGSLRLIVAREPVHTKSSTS
# Assay: holdup assay
# Parameters: key: below the threshold = too weak to quantify, mostly under pKd 3.1 to 4
# Conditions: plain residues with an end cap or a label only (N-terminal biotin on a linker: ado-ado)
row,pKd,Binder
1,below the threshold,"SRSVVESDEL [MYPN, Q86TC9]"
2,below the threshold,"PSVGSKKTVL [REELD1, A0A1B0GV85]"

# Biological target: Inadl_2, Q8NI35
# Sequence (Q8NI35 238-335): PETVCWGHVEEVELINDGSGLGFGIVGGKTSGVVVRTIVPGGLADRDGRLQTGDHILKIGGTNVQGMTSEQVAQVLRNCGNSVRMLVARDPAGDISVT
# Assay: holdup assay
# Parameters: key: below the threshold = too weak to quantify, mostly under pKd 3.1 to 4
# Conditions: plain residues with an end cap or a label only (N-terminal biotin on a linker: ado-ado)
row,pKd,Binder
1,below the threshold,"SRSVVESDEL [MYPN, Q86TC9]"
2,below the threshold,"PSVGSKKTVL [REELD1, A0A1B0GV85]"

# Biological target: Inadl_9, Q8NI35
# Sequence (Q8NI35 1530-1615): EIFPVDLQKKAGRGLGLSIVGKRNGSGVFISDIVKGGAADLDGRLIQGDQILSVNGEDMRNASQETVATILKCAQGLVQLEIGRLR
# Assay: holdup assay
# Parameters: key: below the threshold = too weak to quantify, mostly under pKd 3.1 to 4
# Conditions: plain residues with an end cap or a label only (N-terminal biotin on a linker: ado-ado)
row,pKd,Binder
1,below the threshold,"SRSVVESDEL [MYPN, Q86TC9]"
2,below the threshold,"PSVGSKKTVL [REELD1, A0A1B0GV85]"

# Biological target: T4, LIN7A, O14910
# Assay: holdup assay
# Parameters: key: below the threshold = too weak to quantify, mostly under pKd 3.1 to 4
# Conditions: plain residues with an end cap or a label only (N-terminal biotin on a linker: ado-ado)
row,pKd,Binder
1,below the threshold,"SRSVVESDEL [MYPN, Q86TC9]"
2,below the threshold,"PSVGSKKTVL [REELD1, A0A1B0GV85]"

# Biological target: T5, LIN7C, Q9NUP9
# Assay: holdup assay
# Parameters: key: below the threshold = too weak to quantify, mostly under pKd 3.1 to 4
# Conditions: plain residues with an end cap or a label only (N-terminal biotin on a linker: ado-ado)
row,pKd,Binder
1,below the threshold,"SRSVVESDEL [MYPN, Q86TC9]"
2,below the threshold,"PSVGSKKTVL [REELD1, A0A1B0GV85]"

# Biological target: MAGI1_1, Q96QZ7
# Sequence (Q96QZ7 1-106): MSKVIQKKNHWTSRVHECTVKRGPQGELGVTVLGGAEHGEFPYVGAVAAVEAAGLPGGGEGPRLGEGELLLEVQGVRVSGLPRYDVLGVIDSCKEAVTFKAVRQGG
# Assay: holdup assay
# Parameters: key: below the threshold = too weak to quantify, mostly under pKd 3.1 to 4
# Conditions: plain residues with an end cap or a label only (N-terminal biotin on a linker: ado-ado)
row,pKd,Binder
1,3.53,"SRSVVESDEL [MYPN, Q86TC9]"
2,below the threshold,"PSVGSKKTVL [REELD1, A0A1B0GV85]"

# Biological target: MAGI1_2, Q96QZ7
# Sequence (Q96QZ7 456-580): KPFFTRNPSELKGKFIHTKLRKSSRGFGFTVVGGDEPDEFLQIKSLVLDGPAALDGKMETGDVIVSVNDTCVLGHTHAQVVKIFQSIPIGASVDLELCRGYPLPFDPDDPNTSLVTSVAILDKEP
# Assay: holdup assay
# Parameters: key: below the threshold = too weak to quantify, mostly under pKd 3.1 to 4
# Conditions: plain residues with an end cap or a label only (N-terminal biotin on a linker: ado-ado)
row,pKd,Binder
1,below the threshold,"SRSVVESDEL [MYPN, Q86TC9]"
2,3.56,"PSVGSKKTVL [REELD1, A0A1B0GV85]"

# Biological target: MAGI2_5, Q86UL8
# Sequence (Q86UL8 915-1017): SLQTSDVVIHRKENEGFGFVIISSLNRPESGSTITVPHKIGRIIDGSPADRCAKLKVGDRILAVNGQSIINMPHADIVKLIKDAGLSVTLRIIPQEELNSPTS
# Assay: holdup assay
# Parameters: key: below the threshold = too weak to quantify, mostly under pKd 3.1 to 4
# Conditions: plain residues with an end cap or a label only (N-terminal biotin on a linker: ado-ado)
row,pKd,Binder
1,3.95,"SRSVVESDEL [MYPN, Q86TC9]"
2,below the threshold,"PSVGSKKTVL [REELD1, A0A1B0GV85]"

# Biological target: MAST1, Q9Y2H9
# Sequence (Q9Y2H9 962-1065): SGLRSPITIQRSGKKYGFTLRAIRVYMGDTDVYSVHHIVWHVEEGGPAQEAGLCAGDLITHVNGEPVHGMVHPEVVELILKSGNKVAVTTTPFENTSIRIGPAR
# Assay: holdup assay
# Parameters: key: below the threshold = too weak to quantify, mostly under pKd 3.1 to 4
# Conditions: plain residues with an end cap or a label only (N-terminal biotin on a linker: ado-ado)
row,pKd,Binder
1,below the threshold,"SRSVVESDEL [MYPN, Q86TC9]"
2,4.2,"PSVGSKKTVL [REELD1, A0A1B0GV85]"

# Biological target: NHERF2_2, Q15599
# Sequence (Q15599 142-238): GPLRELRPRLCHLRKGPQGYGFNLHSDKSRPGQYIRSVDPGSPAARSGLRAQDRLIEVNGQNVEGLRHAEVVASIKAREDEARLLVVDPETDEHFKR
# Assay: holdup assay
# Parameters: key: below the threshold = too weak to quantify, mostly under pKd 3.1 to 4
# Conditions: plain residues with an end cap or a label only (N-terminal biotin on a linker: ado-ado)
row,pKd,Binder
1,3.86,"SRSVVESDEL [MYPN, Q86TC9]"
2,3.68,"PSVGSKKTVL [REELD1, A0A1B0GV85]"

# Biological target: T6, PARD3B_1, Q8TEW8
# Assay: holdup assay
# Parameters: key: below the threshold = too weak to quantify, mostly under pKd 3.1 to 4
# Conditions: plain residues with an end cap or a label only (N-terminal biotin on a linker: ado-ado)
row,pKd,Binder
1,below the threshold,"SRSVVESDEL [MYPN, Q86TC9]"
2,4.62,"PSVGSKKTVL [REELD1, A0A1B0GV85]"

# Biological target: PARD3_3, Q8TEW0
# Sequence (Q8TEW0 582-685): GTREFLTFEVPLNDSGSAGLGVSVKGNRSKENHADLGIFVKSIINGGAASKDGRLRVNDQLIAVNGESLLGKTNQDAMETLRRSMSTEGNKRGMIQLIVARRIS
# Assay: holdup assay
# Parameters: key: below the threshold = too weak to quantify, mostly under pKd 3.1 to 4
# Conditions: plain residues with an end cap or a label only (N-terminal biotin on a linker: ado-ado)
row,pKd,Binder
1,below the threshold,"SRSVVESDEL [MYPN, Q86TC9]"
2,below the threshold,"PSVGSKKTVL [REELD1, A0A1B0GV85]"

# Biological target: PTPN3, P26045
# Sequence (P26045 505-587): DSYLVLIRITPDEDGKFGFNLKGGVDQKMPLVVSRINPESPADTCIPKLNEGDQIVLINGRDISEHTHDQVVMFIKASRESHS
# Assay: holdup assay
# Parameters: key: below the threshold = too weak to quantify, mostly under pKd 3.1 to 4
# Conditions: plain residues with an end cap or a label only (N-terminal biotin on a linker: ado-ado)
row,pKd,Binder
1,3.99,"SRSVVESDEL [MYPN, Q86TC9]"
2,3.64,"PSVGSKKTVL [REELD1, A0A1B0GV85]"

# Biological target: T7, RADIL, Q96JH8
# Assay: holdup assay
# Parameters: key: below the threshold = too weak to quantify, mostly under pKd 3.1 to 4
# Conditions: plain residues with an end cap or a label only (N-terminal biotin on a linker: ado-ado)
row,pKd,Binder
1,below the threshold,"SRSVVESDEL [MYPN, Q86TC9]"
2,below the threshold,"PSVGSKKTVL [REELD1, A0A1B0GV85]"

# Biological target: T8, SHANK1, Q9Y566
# Assay: holdup assay
# Parameters: key: below the threshold = too weak to quantify, mostly under pKd 3.1 to 4
# Conditions: plain residues with an end cap or a label only (N-terminal biotin on a linker: ado-ado)
row,pKd,Binder
1,below the threshold,"SRSVVESDEL [MYPN, Q86TC9]"
2,3.93,"PSVGSKKTVL [REELD1, A0A1B0GV85]"

# Biological target: T9, SYNJ2BP, P57105
# Assay: holdup assay
# Parameters: key: below the threshold = too weak to quantify, mostly under pKd 3.1 to 4
# Conditions: plain residues with an end cap or a label only (N-terminal biotin on a linker: ado-ado)
row,pKd,Binder
1,below the threshold,"SRSVVESDEL [MYPN, Q86TC9]"
2,below the threshold,"PSVGSKKTVL [REELD1, A0A1B0GV85]"

# Biological target: T10, TJP3_3, O95049
# Assay: holdup assay
# Parameters: key: below the threshold = too weak to quantify, mostly under pKd 3.1 to 4
# Conditions: plain residues with an end cap or a label only (N-terminal biotin on a linker: ado-ado)
row,pKd,Binder
1,below the threshold,"SRSVVESDEL [MYPN, Q86TC9]"
2,below the threshold,"PSVGSKKTVL [REELD1, A0A1B0GV85]"

# From article PMC9482650, “Quantitative fragmentomics allow affinity mapping of interactomes” (Nature Communications, 2022)
